Tests used:
[1] = target: T1, Full-length human SMYD2 (residues 1-433), wild type (human, UniProt Q9NRG4 1-433); assay: ITC; one-site model (n = 2.01)
[2] = target: T1, Full-length human SMYD2 (residues …); assay: ITC; two-site model, KD1
[3] = target: T1, Full-length human SMYD2 (residues …); assay: ITC; two-site model, KD2 (second site)
SMYD2-F184A = SMYD2-F184A (human, UniProt Q9NRG4 1-433, F184A); assay: ITC; one-site model
Chain of SMYD2-F184A (Q9NRG4 whole entry F184A): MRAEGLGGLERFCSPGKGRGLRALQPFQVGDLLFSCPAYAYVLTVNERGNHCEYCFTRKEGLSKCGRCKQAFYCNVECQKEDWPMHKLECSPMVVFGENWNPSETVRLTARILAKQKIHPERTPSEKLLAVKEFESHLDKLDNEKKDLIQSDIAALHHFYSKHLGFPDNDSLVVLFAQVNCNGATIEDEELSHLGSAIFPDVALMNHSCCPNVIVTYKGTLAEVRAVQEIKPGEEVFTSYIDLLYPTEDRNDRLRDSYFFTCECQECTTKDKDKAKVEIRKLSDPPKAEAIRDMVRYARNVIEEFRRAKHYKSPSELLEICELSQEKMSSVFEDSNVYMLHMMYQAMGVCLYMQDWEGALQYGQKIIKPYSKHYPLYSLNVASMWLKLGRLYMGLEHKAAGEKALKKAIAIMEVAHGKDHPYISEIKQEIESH

T1 sequence (Q9NRG4 whole entry, the tested form may be a part): as the sequence (Q9NRG4 whole entry F184A) above, with A184F counted along it

B1: PARP1 peptide (13-residue synthetic peptide, human PARP1 residues 522-534) (peptide)
peptide: RMKLTLKGGAAVD
B1 gave a Kd [1] of 17.7 µM, a Kd [2] of 17.8 µM and a Kd [3] of 18.2 µM. For the same binder, the Kd (SMYD2-F184A) was 41.7 µM.

Source: publication doi:10.1101/2024.12.03.626679 (2024)
